Measured values reported in PMC12111007, “Potential of Hyperthermophilic L-Asparaginase from Thermococcus sibiricus to Mitigate Dietary Acrylamide Assessed Using a Simplified Food System” (Foods, 2025).

Substrate: NC(=O)C[C@H](N)C(=O)O
Experiment: direct Nesslerization (ammonia release)
Assay type: biochemical, Thermococcus sibiricus
Conditions: 90 °C, substrate not named beside the constant, taken as L-asparagine, pH not stated for the kinetics

B1: TsAI (hyperthermophilic L-asparaginase from Thermococcus sibiricus) (Thermococcus sibiricus MM 739) (protein)
chain: MKKLLIIGTGGTIASAKTEQGYKSVLKIDEILKLAKIKLENGYKIDSTNIMNIDSTLIHPEDWEIIAKEVFKALDDYDGIIITHGTDTLAYTASMLSFMIKNPNKPIVLTGSMLPITENGSDAPRNIRTAIKFAMEDVAGVFVAFMDKIMLGCRTSKVRTLGLNAFMSINYPDVAYVKGEKILYNIPKEKFQPNGSPELDTKYEPRVVVLRVTPGLGGEIIDAVLDAGYKGIVLEGYGAGGLPYRKSNLLSKIKEITPKIPVIMTTQALYDGVDMRKYEVGRKALETGIIPAKDMTKEATITKLMWALGHTKDVEKIREIMHTNYVNEIKS
Km: 3.8 mM
